Values joined by “and” are separate entries in the source; they are usually repeats but may differ in a detail not shown here. Identical values can stand only once.
Legend:
[1] = tested on: T1, MPLVM (MMP substrate, 5X library)
T1 sequence: MPLVM

[2] = tested on: T2, VPVVM (MMP substrate, 5X library)
T2 sequence: VPVVM

[3] = tested on: T3, TPLAL (MMP substrate, 5X library)
T3 sequence: TPLAL

[4] = tested on: T4, PVNVV (MMP substrate, 5X library)
T4 sequence: PVNVV

[5] = tested on: T5, PVPMV (MMP substrate, 5X library)
T5 sequence: PVPMV

[6] = tested on: T6, VPVNM (MMP substrate, 5X library)
T6 sequence: VPVNM

[7] = tested on: T7, MPVVL (MMP substrate, 5X library)
T7 sequence: MPVVL

[8] = tested on: T8, PVAMR (MMP substrate, 5X library)
T8 sequence: PVAMR

[9] = tested on: T9, PMAVT (MMP substrate, 5X library)
T9 sequence: PMAVT

[10] = tested on: T10, PMAVI (MMP substrate, 5X library)
T10 sequence: PMAVI

[11] = tested on: T11, VPLNM (MMP substrate, 5X library)
T11 sequence: VPLNM

[12] = tested on: T12, VPMVV (MMP substrate, 5X library)
T12 sequence: VPMVV

[13] = tested on: T13, Dabcyl-SGDRMW(E-Edans)-amide
T13 sequence: SGDRMW

EP 4.3 = tested on: T14, EP 4.3
T14 sequence: SSGDRMWGG

EP 4.2 = tested on: T15, EP 4.2
T15 sequence: MHGERMGGS

EP 4.6 = tested on: T16, EP 4.6
T16 sequence: SSGERMMGG

EP 4.4 = tested on: T17, EP 4.4
T17 sequence: SEYDRQLGS

EP 4.9 = tested on: T18, EP 4.9
T18 sequence: SVLDRWMGG

EP 4.1 = tested on: T19, EP 4.1
T19 sequence: SVDYRFLGS

[14] = tested on: T20, negative control displaying the sequence GGQSGQ
T20 sequence: GGQSGQ

EP 4.10 = tested on: T21, EP 4.10
T21 sequence: GSSERAAAG

EP 2.2 = tested on: T22, EP 2.2
T22 sequence: AAVERWGGS

[15] = tested on: T23, Canonical (enteropeptidase substrate)
T23 sequence: DDDDKGGQS

[16] = tested on: T24, CyPet-YPet substrate with recognition sequence SGDRMW (EP4.3)
T24 sequence: SGDRMWHHHHHH

EP 2.5 = tested on: T25, EP 2.5
T25 sequence: MSGERMGGS

EP 4.8 = tested on: T26, EP 4.8
T26 sequence: VRDYRMGGQ

EP 4.7 = tested on: T27, EP 4.7
T27 sequence: GSDDRRAGG

EP 3.6 = tested on: T28, EP 3.6
T28 sequence: GSSDRARVW

[17] = biological target: T29, Canonical (caspase-3 substrate)
T29 chain: QDEVDGGQS
Throughout, for % Conversion: test concentration or dose not given here.

matrix metalloprotease-1
% Conversion (fraction (head says % Conversion)) [1]: 0.659 | % Conversion (fraction (head says % Conversion)) [2]: 0.366 | % Conversion (fraction (head says % Conversion)) [3]: 0.417 | % Conversion (fraction (head says % Conversion)) [4]: 0.789 | % Conversion (fraction (head says % Conversion)) [5]: 0.496 | % Conversion (fraction (head says % Conversion)) [6]: 0.76 | % Conversion (fraction (head says % Conversion)) [7]: 0.428 | % Conversion (fraction (head says % Conversion)) [8]: 0.729 | % Conversion (fraction (head says % Conversion)) [9]: 0.504 | % Conversion (fraction (head says % Conversion)) [10]: 0.699 | % Conversion (fraction (head says % Conversion)) [11]: 0.844 and 0.61 | % Conversion (fraction (head says % Conversion)) [12]: 0.814 and 0.443

catalytic subunit light chain of enteropeptidase
kcat/KM of the synthetic fluorogenic peptide, relative to DDDDK [13]: > 5 fold | Conversion (fraction converted) (EP 4.3): 0.97 | Conversion (fraction converted) (EP 4.2): 0.84 | Conversion (fraction converted) (EP 4.6): 0.93 | Conversion (fraction converted) (EP 4.4): 0.71 | Conversion (fraction converted) (EP 4.9): 0.72 | Conversion (fraction converted) (EP 4.1): 0.84 | change in fluorescence (SA-PE label) after incubation with enteropeptidase [14]: exhibited minimal change in fluorescence | Conversion (fraction converted) (EP 4.10): 0.78 | Conversion (fraction converted) (EP 2.2): 0.69 | Conversion (fraction converted) [15]: 0.15 | decrease in mean fluorescence intensity (SA-PE label) after incubation with enteropeptidase [15]: 20 fold | cleavage rate of the CyPet-YPet fusion by fluorimetry, relative to DDDDK [16]: cleaved at a rate 17-fold faster than DDDDK | Conversion (fraction converted) (EP 2.5): 0.84 | Conversion (fraction converted) (EP 4.8): 0.87 | Conversion (fraction converted) (EP 4.7): 0.91 | Conversion (fraction converted) (EP 3.6): 0.86

B1: caspase-3 (protein)
chain: MENTENSVDSKSIKNLEPKIIHGSESMDSGISLDNSYKMDYPEMGLCIIINNKNFHKSTGMTSRSGTDVDAANLRETFRNLKYEVRNKNDLTREEIVELMRDVSKEDHSKRSSFVCVLLSHGEEGIIFGTNGPVDLKKITNFFRGDRCRSLTGKPKLFIIQACRGTELDCGIETDSGVDDDMACHKIPVEADFLYAYSTAPGYYSWRNSKDGSWFIQSLCAMLKQYADKLEFMHILTRVNRKVATEFESFSFDATFHAKKQIPCIVSMLTKELYFYH
Conversion (fraction converted) [17]: 0.95

— patent US20070065878A1
